Experiments:
[1] = biological target: Dupilumab analogue; test: ELISA; settings: dupilumab analogue 100 pM; read off a plot
[2] = biological target: T1, extracellular domain of human IL-4Rα (residues 26–232), C-terminal 6× His (human, UniProt P24394); test: BLI; OctetRED96; Ab (1 μg/mL) captured on anti-human IgG Fc capture (AHC) biosensors at low density (0.6 to 0.8 nm), soluble monomeric IL-4Rα as analyte; 25 °C, PBS pH 7.4, 0.02% Tween 20; association 300 s, dissociation 600-900 s; 1:1 binding model; settings: both partners purified
T1 construct: human interleukin-4 receptor alpha subunit, extracellular domain, residues 26-232; Subcloned into the pSecTag2A vector; N-glycosylated (~45 kDa, ~26 kDa after PNGase F); also called wild-type IL-4Rα; soluble IL-4Rα; source: HEK293F, transiently transfected, purified (Ni-NTA); not shown: His6, C-terminal, kept

[3] = biological target: T2, insulin (Homo sapiens (assumed), UniProt P01308); test: ELISA; non-specificity ELISA: hemocyanin (150 ng/well) and insulin (150 ng/well) coated (also dsDNA and cardiolipin); settings: both partners purified
T2 construct: insulin B chain; insulin A chain; Polyreactivity antigen; source: bought: Sigma, I9278

Molecule | percent of parent [1] [%] | Kd [2] [pM] | koff [2] [s⁻¹] | kon [2] [M⁻¹ s⁻¹] | binding result [3]
extracellular domain of human IL-4Rα (residues 26–232), C-terminal 6× His (from UniProt P24394) L67A | 100 | – | – | – | –
extracellular domain of human IL-4Rα (residues 26–232), C-terminal 6× His (from UniProt P24394) S95A | 100 | – | – | – | –
extracellular domain of human IL-4Rα (residues 26–232), C-terminal 6× His (from UniProt P24394) Y38A | 120 | – | – | – | –
extracellular domain of human IL-4Rα (residues 26–232), C-terminal 6× His (from UniProt P24394) Y208A | 100 | – | – | – | –
4R34.1, human IgG1 (antibody, V domains shown) VH: EVQLLESGGGLVQPGGSLRLSCAASGFTFSNYAMSWVRQAPGKGLEWVSAITSSGRSIYYADSVKGRFTISRDNSKNTLYLQMNSLRAEDTAVYYCARVHRAFDYWGQGTLVTVSS VL: QSVLTQPPSASGTPGQRVTISCSGSSSNIGSNTFNWYQQLPGTAPKLLIYADSHRPSGVPDRFSGSKSGTSASLAISGLRSEDEADYYCGTWDYSLSGYVLGGGTKLTVL | – | 401 | 0.00172 | 4.28e+06 | –
4R34.1.13, human IgG1 (antibody, V domains shown) VH: EVQLLESGGGLVQPGGSLRLSCAASGFTFSNYAMSWVRQAPGKGLEWVSAITSSGRSIYYADSVKGRFTISRDNSKNTLYLQMNSLRAEDTAVYYCARVHRAFDYWGQGTLVTVSS VL: QSVLTQPPSASGTPGQRVTISCSGSAQFGSRDNFNWYQQLPGTAPKLLIYADSHRPSGVPDRFSGSKSGTSASLAISGLRSEDEADYYCGTWDYSLRGYVLGGGTKLTVL | – | 208 | 0.00107 | 5.12e+06 | –
4R34.29, human IgG1 (antibody, V domains shown) VH: EVQLLESGGGLVQPGGSLRLSCAASGFTFSNYAMSWVRQAPGKGLEWVSAITAGGGSIYYADSVKGRFTISRDNSKNTLYLQMNSLRAEDTAVYYCARVHRAFDYWGQGTLVTVSS VL: QSVLTQPPSASGTPGQRVTISCSGSSSNIGSNTFNWYQQLPGTAPKLLIYADSHRPSGVPDRFSGSKSGTSASLAISGLRSEDEADYYCGTWDYSLSGYVLGGGTKLTVL | – | 716 | 0.00371 | 5.18e+06 | –
4R34.1.19, human IgG1 (antibody, V domains shown) VH: EVQLLESGGGLVQPGGSLRLSCAASGFTFSRHAMAWVRQAPGKGLEWVSAITSSGRSIYYADSVKGRFTISRDNSKNTLYLQMNSLRAEDTAVYYCARVHRAFDYWGQGTLVTVSS VL: QSVLTQPPSASGTPGQRVTISCSGSPLFPDSGSFNWYQQLPGTAPKLLIYADSHRPSGVPDRFSGSKSGTSASLAISGLRSEDEADYYCGTWDYSLSGYVLGGGTKLTVL | – | 178 | 0.000877 | 4.93e+06 | no binding
4R34.19, human IgG1 (antibody, V domains shown) VH: EVQLLESGGGLVQPGGSLRLSCAASGFTFSNYAMSWVRQAPGKGLEWVSAITSSGGNIYYADSVKGRFTISRDNSKNTLYLQMNSLRAEDTAVYYCARVHRAFDYWGQGTLVTVSS VL: QSVLTQPPSASGTPGQRVTISCSGSSSNIGSNTFNWYQQLPGTAPKLLIYADSHRPSGVPDRFSGSKSGTSASLAISGLRSEDEADYYCGYWDYSLSGYVLGGGTKLTVL | – | 532 | 0.00243 | 4.58e+06 | –
4R34.1.17, human IgG1 (antibody, V domains shown) VH: EVQLLESGGGLVQPGGSLRLSCAASGFTFSNYAMSWVRQAPGKGLEWVSAITSSGRSIYYADSVKGRFTISRDNSKNTLYLQMNSLRAEDTAVYYCARVHRAFDYWGQGTLVTVSS VL: QSVLTQPPSASGTPGQRVTISCSGSTKQMHNYQFNWYQQLPGTAPKLLIYADSHRPSGVPDRFSGSKSGTSASLAISGLRSEDEADYYCGTWDYSLSGYVLGGGTKLTVL | – | 179 | 0.000879 | 4.92e+06 | –

The next lines start with the values.

percent of parent [1] [%] | Kd [2] [pM] | koff [2] [s⁻¹] | kon [2] [M⁻¹ s⁻¹] | binding result [3] | Molecule
76 | – | – | – | – | extracellular domain of human IL-4Rα (residues 26–232), C-terminal 6× His (from UniProt P24394) V93A
100 | – | – | – | – | extracellular domain of human IL-4Rα (residues 26–232), C-terminal 6× His (from UniProt P24394) D92A
73 | – | – | – | – | extracellular domain of human IL-4Rα (residues 26–232), C-terminal 6× His (from UniProt P24394) D97A
97 | – | – | – | – | extracellular domain of human IL-4Rα (residues 26–232), C-terminal 6× His (from UniProt P24394) L68A
– | 1040 | 0.00361 | 3.47e+06 | – | 4R34, human IgG1 (antibody, V domains shown) VH: EVQLLESGGGLVQPGGSLRLSCAASGFTFSNYAMSWVRQAPGKGLEWVSAISSGGGNIYYADSVKGRFTISRDNSKNTLYLQMNSLRAEDTAVYYCARVHRAFDYWGQGTLVTVSS VL: QSVLTQPPSASGTPGQRVTISCSGSSSNIGSNTFNWYQQLPGTAPKLLIYADSHRPSGVPDRFSGSKSGTSASLAISGLRSEDEADYYCGTWDYSLSGYVLGGGTKLTVL
– | 290 | 0.00175 | 6.05e+06 | – | 4R34.1.18, human IgG1 (antibody, V domains shown) VH: EVQLLESGGGLVQPGGSLRLSCAASGFTFSNYAMSWVRQAPGKGLEWVSAITSSGRSIYYADSVKGRFTISRDNSKNTLYLQMNSLRAEDTAVYYCARVHRAFDYWGQGTLVTVSS VL: QSVLTQPPSASGTPGQRVTISCSGSLLRGENLQFNWYQQLPGTAPKLLIYADSHRPSGVPDRFSGSKSGTSASLAISGLRSEDEADYYCGTWDYSLRGYVLGGGTKLTVL
– | 853 | 0.00401 | 4.7e+06 | – | 4R34.2, human IgG1 (antibody, V domains shown) VH: EVQLLESGGGLVQPGGSLRLSCAASGFTFSNYAMSWVRQAPGKGLEWVSAITSSGANIYYADSVKGRFTISRDNSKNTLYLQMNSLRAEDTAVYYCARVHRAFDYWGQGTLVTVSS VL: QSVLTQPPSASGTPGQRVTISCSGSSSNIGSNTFNWYQQLPGTAPKLLIYADSHRPSGVPDRFSGSKSGTSASLAISGLRSEDEADYYCGTWDYSLRGYVLGGGTKLTVL
– | 210 | 0.000968 | 4.62e+06 | – | 4R34.1.11, human IgG1 (antibody, V domains shown) VH: EVQLLESGGGLVQPGGSLRLSCAASGFTFSNYAMSWVRQAPGKGLEWVSAITSSGRSIYYADSVKGRFTISRDNSKNTLYLQMNSLRAEDTAVYYCARVHRAFDYWGQGTLVTVSS VL: QSVLTQPPSASGTPGQRVTISCSGSSANSRTDGFNWYQQLPGTAPKLLIYADSHRPSGVPDRFSGSKSGTSASLAISGLRSEDEADYYCGTWDYSLRGYVLGGGTKLTVL
– | 228 | 0.00106 | 4.63e+06 | – | 4R34.1.21, human IgG1 (antibody, V domains shown) VH: EVQLLESGGGLVQPGGSLRLSCAASGFTFSNYAMSWVRQAPGKGLEWVSAITSSGRSIYYADSVKGRFTISRDNSKNTLYLQMNSLRAEDTAVYYCARVHRAFDYWGQGTLVTVSS VL: QSVLTQPPSASGTPGQRVTISCSGSAALDLSPSFNWYQQLPGTAPKLLIYADSHRPSGVPDRFSGSKSGTSASLAISGLRSEDEADYYCGTWDYSLSGYVLGGGTKLTVL

From PMC6533264 (Scientific Reports, 2019)
